From article PMC2175253

Experiments:
Assay in all cases: two-hybrid
[1] = biological target: α-catenin, full-length (pBTM116-HA-α-catenin) (mouse) (UniProt P26231)
[2] = biological target: α-catenin COOH-terminal half (pBTM116-HA-α-catenin-C) (mouse) (UniProt P26231)
[3] = biological target: nectin-2α cytoplasmic region (pBTM116-HA-nectin-2α-CP) (mouse)
Chain of nectin-2α cytoplasmic region (pBTM116-HA-nectin-2α-CP) (mouse) (P32507 387-467): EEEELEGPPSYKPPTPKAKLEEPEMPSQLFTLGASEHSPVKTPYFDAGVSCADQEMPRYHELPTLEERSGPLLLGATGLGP

β-galactosidase activity (units of β-galactosidase activity) [1]: < 1
β-galactosidase activity (units of β-galactosidase activity) [2]: 30
β-galactosidase activity (units of β-galactosidase activity) [3]: 41
Substance: l-afadin (pGAD424-HA-l-afadin), full-length, HA-tagged and fused with the GAL4 activation domain (from UniProt O35889-1 1-1829) (natural protein)
